Measured values published in US20240182575A1 (Ablynx, published 2024).

Columns and labels:
[1] = target: T1, HuCD86-HuIgG1 (fusion protein of the extracellular part of human CD86 and human Fc gamma 1, R&D Systems Cat … (human, UniProt P42081 24-247)); assay: SPR, Biacore 3000, antigen amine-coupled
T1 construct: extracellular domain; bought; also called CD86-IgG1; CD86-Ig; not shown: human Fc gamma 1
T1 sequence (looked up): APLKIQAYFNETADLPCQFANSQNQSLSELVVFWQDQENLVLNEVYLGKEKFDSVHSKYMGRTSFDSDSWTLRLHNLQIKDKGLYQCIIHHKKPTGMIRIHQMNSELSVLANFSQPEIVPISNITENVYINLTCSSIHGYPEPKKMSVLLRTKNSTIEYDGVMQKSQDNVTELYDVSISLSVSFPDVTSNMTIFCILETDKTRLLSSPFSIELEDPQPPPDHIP
Procedure: Affinity constants (Kd) of individual purified Nanobody clones were determined by surface plasmon resonance on a Biacore 3000 instrument. […] Remaining reactive groups were inactivated using ethanolamine. Nanobody binding was assessed at 1 and 0.1 microM. Each sample was injected for 4 min at a flow rate of 45 μl/min to allow for binding to chip-bound antigen. Next, binding buffer without Nanobody was sent over the chip at the same flow rate to allow for dissociation of bound Nanobody. After 2 min, remaining bound analyte was removed by injecting regeneration solution (50 mM NaOH or Glycine/HCl pH 1.5). Binding curves obtained at different concentrations of Nanobody were used to calculate Kd values.

[2] = target: T2, Human IgG1, purified from a human plasma (Sigma-Aldrich Cat #I-5154) (human); assay: ELISA, periplasmic extract on coated antigen, anti-myc detection
T2 construct: also called HuIgG1
Source text: (§1) To this end, 3 independent ELISA assays were set up. In these ELISAs, either HuCD80 or HuCD86 fusion proteins or human IgG1 were coated on ELISA plates which were washed and then blocked using Marvel skimmed milk powder (Premier Brands UK Ltd., Wirral, Merseyside, UK). […] Four aliquots of periplasmic extract of individual clones prepared as described in Example 4 were allowed to bind in all four types of ELISA plates. Binding of Nanobody to immobilized antigen was detected using mouse anti-c-myc tag monoclonal antibody as a secundary, followed by a goat-anti-mouse (human and bovine serum protein pre-absorbed) HRP conjugate for detection (for detailed protocol, see the prior art and prior applications filed by applicant).

[3] = target: T1, HuCD86-HuIgG1 (fusion protein of the …); assay: as above
Source text: as §1

[4] = target: T3, cynomolgus monkey CTLA4 on stably transfected CHO-K1 cells (human CTLA4 cDNA with S13N, I17T and L105M) (human backbone with cynomolgus monkey …, UniProt P16410 36-223); assay: FACS, direct binding titration on cyno CTLA4 CHO cells (head prints IC50)
T3 chain: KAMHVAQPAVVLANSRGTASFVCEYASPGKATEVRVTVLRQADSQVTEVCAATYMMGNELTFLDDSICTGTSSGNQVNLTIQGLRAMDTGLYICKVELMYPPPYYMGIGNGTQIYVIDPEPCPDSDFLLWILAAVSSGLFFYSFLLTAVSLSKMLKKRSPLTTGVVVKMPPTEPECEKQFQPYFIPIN

[5] = target: T4, human CTLA4 (Y201 mutated to valine) on stably transfected CHO-K1 cells (human, UniProt P16410 36-223); assay: FACS, direct binding titration on human CTLA4 CHO cells (head prints IC50)
T4 construct: whole, on cells; the mutation of the intracellular position Y201 keeps the protein on the membrane; also called human CTLA4 overexpressing CHO cells; human CTLA4 transfectant
Procedure: Binding of putative CTLA4 reactive Nanobodies clones was detected using unlabeled anti-c-myc tag mouse monoclonal antibody 9E10, followed by a phycoerythrin conjugated F(ab′)2 derived from goat-anti-mouse IgG (human and bovine crossabsorbed), and read on a BD FACSarray instrument. Dead cells were excluded from the analysis by gating out TOPRO3 vital dye positive scoring cells. Binding of the Nanobodies to cells was evaluated in BD FACSarray control software as PE channel histograms.

[6] = target: T5, HuCTLA4-HuIgG1 (fusion protein of the extracellular part of human CD152 and human Fc gamma 1, CTLA4-Ig) (human, UniProt P16410 36-161); assay: SPR, Biacore T100, CTLA4-Ig amine-coupled
T5 construct: extracellular domain; also called CTLA4-hFc; CTLA4-Fc; not shown: human Fc gamma 1
Procedure: Affinity constants (Kd) of individual purified Nanobody clones were determined by surface plasmon resonance on a Biacore T100 instrument. […] Remaining reactive groups were inactivated using ethanolamine. […] Each sample was injected for 2 min at a flow rate of 45 μl/min to allow for binding to chip-bound antigen. Next, binding buffer without Nanobody was sent over the chip at the same flow rate to allow for dissociation of bound Nanobody. After 2 min, remaining bound analyte was removed by injecting regeneration solution (10 mM Glycine/HCl pH 1.5). Binding curves obtained at different concentrations of Nanobody were used to calculate KD values. For some clones, only a single undetermined concentrations of Nanobody was injected.

[7] = target: T6, HuCD80-HuIgG1 (fusion protein of the extracellular part of human CD80 and human Fc gamma 1, R&D Systems Cat … (human, UniProt P33681 35-242)); assay: ELISA, periplasmic extract on coated antigen, anti-myc detection
T6 construct: extracellular domain; bought, produced in NS0 cells; also called CD80-IgG1; CD80-Ig; not shown: human Fc gamma 1
T6 sequence (looked up): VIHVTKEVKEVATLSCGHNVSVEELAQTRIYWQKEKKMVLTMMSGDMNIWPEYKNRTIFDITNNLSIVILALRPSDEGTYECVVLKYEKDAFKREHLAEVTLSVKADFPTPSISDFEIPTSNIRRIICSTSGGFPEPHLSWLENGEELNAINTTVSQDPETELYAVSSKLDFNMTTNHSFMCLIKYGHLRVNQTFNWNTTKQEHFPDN
Source text: as §1

T5 sequence (P16410 36-161 limits assumed): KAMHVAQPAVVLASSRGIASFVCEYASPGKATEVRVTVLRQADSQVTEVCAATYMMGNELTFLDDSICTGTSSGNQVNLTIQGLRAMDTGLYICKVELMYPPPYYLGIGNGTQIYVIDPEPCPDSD
T4 sequence (P16410 other isoform, or with tags, fused parts or gaps, change not shown): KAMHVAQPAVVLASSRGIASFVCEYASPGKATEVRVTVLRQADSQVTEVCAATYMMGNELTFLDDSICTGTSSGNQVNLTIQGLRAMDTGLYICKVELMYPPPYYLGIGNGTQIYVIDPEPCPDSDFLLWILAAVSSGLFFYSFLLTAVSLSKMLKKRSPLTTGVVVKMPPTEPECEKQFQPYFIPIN

B1: CD8086PMP2B10 (VHH)
VHH: EVQLVESGGGLVQAGGSLRLSCTGSQISFSDNTMNWYRQVPGKQRELVASLSIFGATGYADSVKGRFTISRDIAGNTVYLQMNDLKIEDTAVYYCKLGPVRRSRLEYWGQGTQVTVSS
notes: not shown: C-terminal c-myc tag and His6 tag
Work on B1 yielded a Kd [1] of 4 nM, a koff [1] of 0.00097 s⁻¹ and a kon [1] of 250000 M⁻¹ s⁻¹. It also gave an OD [2] of 0.044 OD and an OD [3] of 1.73 OD.

B2: 4CTLAPMP02A5 (VHH)
VHH: EVQLVESGGGLVQAGGSLRLSCAASGRTNSTTLMGWSRRAPGKEREFVAAISGSGTLTSYADSVKGRFAISRDNAKNTVYLQMNSLKPEDTAIYYCAAGLTSWALIPSRTLTTWGQGTQVTVSS
notes: short label tied to the entry by the clone code only; not shown: C-terminal c-myc tag and His6 tag
For B2, the IC50 [4] was 7.74 nM, the IC50 [5] was 5.72 nM and the koff [6] was 0.0053 s⁻¹.

B3: 4CTLAPMP03C4 (VHH)
VHH: EVQLVESGGGLVQAGGSLRLSCAASGGTFSFYGMGWFRQAPGKEREFVADIRTSAGRTYYADSVKGRFTISRDNAKNTVYLQMNSLKPEDTAVYYCAAEMSGISGWDYWGQGTQVTVSS
notes: as for B2
With B3 the IC50 [4] was 6.73 nM, the IC50 [5] was 8.06 nM and the koff [6] was 0.0205 s⁻¹.

B4: 4CTLAPMP02C11 (VHH)
VHH: EVQLVESGGGLVQPGGSLRLSCAASGNIFTRHIMGWYRQAPGKQRELVASITPGDNINYADSVKGRFTISRDGAKNTVYLQMNSLKPEDTAVYYCNAHGSILLDRTNYWGQGTQVTVSS
notes: as for B2
In the case of B4, the koff [6] is reported as 0.0235 s⁻¹.

B5: 4CTLAPMP08E5 (VHH)
VHH: EVQLVESGGGLVQPGGSLRLSCAASRDIFTRNIMGWYRQAPGKQRDLVASITPGGNMYYADSVKGRFTISRDGAKNTVYLQMNSLKPEDTAVYYCNAHGSILLDRSNYWGQGTQVTVSS
notes: label 8E5.4 tied to 4CTLAPMP08E5 by the clone code only; the suffix .4 is not explained; also called 8E5.4; not shown: C-terminal c-myc tag and His6 tag
For B5, the koff [6] was 0.00386 s⁻¹.

B6: 4CTLAPMP11E3 (VHH)
VHH: EVQLVESGGGLVEPGGSLRLSCAASGSISSYNVMGWYRQAPGQQRDLVAHIASNGEIMYADSAKGRFTISRDNAKKTVYLQMNSLKPEDTAVYYCKLWVLGNDYWGQGTQVTVSS
notes: also called 11E3 WT; not shown: C-terminal c-myc tag and His6 tag
With B6 the IC50 [4] was 4.5 nM, the IC50 [5] was 4.91 nM and the Kd [6] was 10 nM. It also gave a koff [6] of 0.00496 s⁻¹ and a kon [6] of 742000 M⁻¹ s⁻¹.

B7: 4CTLAPMP12H2 (VHH)
VHH: EVQLVESGGGLVEPGGSLRLSCAASGSISSYNVMGWYRQAPGQQRDLVAHIASNGEIMYADSAKGRFTISRDNAKKTVYLQMNSLKPEDTAVYYCKLWVLGNDYWGQRTQVTVSS
notes: as for B2
B7 was tested, and the IC50 [4] was 5.65 nM, the IC50 [5] was 5.82 nM and the Kd [6] was 7.52 nM. It also gave a koff [6] of 0.00258 s⁻¹ and a kon [6] of 349000 M⁻¹ s⁻¹.

B8: CD8086PMP2E6 (VHH)
VHH: EVQLVESGGGLVQAGGSLRLSCAASGSIFSIYDMGWYRQAPGKQRVLVATITSGGSTNYADSVKGRFTISRDDAKNTVYLQMNSLKPEDTAVYYCNAIAHEEGVYRWDFWGQGTQVTVSS
notes: as for B1
Binder B8 has an OD [2] of 0.049 OD, an OD [7] of 1.52 OD and an OD [3] of 0.538 OD.

B9: CD8086PMP2F5 (VHH)
VHH: EVQLVKSGGGLVQAGGSLRLSCAASGSIFSIYDMGWYRQAPGKQRELVAAITSGGSTNYADSVKGRFTISRDNAKNTVYLQMNSLKPEDTAVYYCNAIAYEEGVYRWDFWGQGTQVTVSS
notes: as for B1
Binder B9 has an OD [2] of 0.056 OD, an OD [7] of 1.65 OD and an OD [3] of 0.774 OD.

B10: 4CTLAPMP03A6 (VHH)
VHH: EVQLVESGGGLVQPGGSLRLSCAAPGRTFSNYAMGWFRQAPGKGREFVADIRWSDGRTYYADSVKGRFTVSRDNAKNTVYLQMNSLKPEDTAVYYCAAQGGVLSGWDYWGQGTQVTVSS
notes: as for B2
Binder B10 has a koff [6] of 0.0018 s⁻¹.

B11: 4CTLAPMP10G5 (VHH)
VHH: EVQLVESGGGLVQAGGSLRLSCAASGGTFSRYIMAWFRQAPGKEREFVAVIDGSGYSTDYAGSVKGRFTIARDNTKNTAYLQMNSLKPEDTALYFCGAGRQYSTGPYWYDYWGQGTQVTVSS
notes: as for B2
B11 gave an IC50 [5] of 4.65 nM and a koff [6] of 0.00618 s⁻¹.

B12: CD8086PMP1A3 (VHH)
VHH: EVQLVESGGGLVQAGGSLRLSCAASGPTSSSYSMGWFRQAPGKEREFVAAINWSHGVTYYADSVKGRFTISRDIAKNTVYLQMNSLKPEDTAVYYCAANEYGLGSSIYAYKHWGQGTQVTVSS
notes: as for B1
B12 was tested, and the OD [2] was 0.052 OD, the OD [7] was 1.92 OD and the OD [3] was 0.053 OD.

B13: 4CTLAPMP13B2 (VHH)
VHH: EVQLVESGGGLVQPGGSLRLSCVASGIHFAISTINWYRQAPGKQRESVAAITGTSVTGYADSVKGRFTLSRDNAKNTVYLQMDNLKPEDTAVYYCNVWSGRDYWGQGTQVTVSS
notes: as for B2
Work on B13 yielded an IC50 [5] of 3.6 nM and a koff [6] of 0.0067 s⁻¹.

B14: CD8086PMP1D1 (VHH)
VHH: EVQLVESGGGLVQAGGSLRLSCAASGRTFSSKAMGWFRQAPGKERDFVAAITWSGGSTYYADHVKGRFTISRDNAKNTVYLQMNSLKPEDTAVYYCATNPYGLGQVGYDYWGQGTQVTVSS
notes: as for B1
Binder B14 has an OD [2] of 0.046 OD, an OD [7] of 1.89 OD and an OD [3] of 0.043 OD.

B15: CD8086PMP2A7 (VHH)
VHH: EVQLVESGGGLVQAGGSLRLSCAASGRTFSSKAMGWFRQAPGKERDFVAAITWSGGSTYYADHVKGRFTISRDNAKNTVYLQMNSLKPEDTAVYYCATNPYGLGQVGYDYWGQGTQVTVSS
notes: as for B1
B15 was tested, and the OD [2] was 0.043 OD, the OD [7] was 1.71 OD and the OD [3] was 0.042 OD.

B16: 4CTLAPMP06C10 (VHH)
VHH: EVQLVESGGGLVQAGGSLRLSCAASGRTFSNYTIAYFRQAPGREREFAAAISPHGTLRSFADSVKDRFTISRDNAKNTVWLQMNSLKLEDTAVYYCAADPSGWGLRQHSENEYPYWGLGTQVTVSS
notes: as for B2
Binder B16 has an IC50 [4] of 5.47 nM, an IC50 [5] of 5.73 nM and a koff [6] of 0.00279 s⁻¹.

B17: 4CTLAPMP17E3 (VHH)
VHH: EVQLMESGGGLVTAGGSLRLSCAASGGTFGHYAMAWFRRPPGNEREFVAGIGWTYTTFYADSVKGRFAISRDNAENTVYLQMNNLKPDDTAVYYCAAAELKGRNLRVPDYEHWGQGTQVTVSS
notes: as for B2
Work on B17 yielded an IC50 [5] of 11.2 nM and a koff [6] of 0.00489 s⁻¹.
